The nanobody polyreactivity screen of Harvey et al. (2022)

Assay: yeast display, Sf9 membrane polyspecificity reagent, FACS + sequencing; frameworks hold sequencing errors
Procedure, shortened: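 Nanobodies came from a synthetic yeast display library in Saccharomyces cerevisiae BJ5465, induced with galactose for 36–48 hours and stained for 1 hour at 4 °C with 10% biotinylated, detergent-solubilized Sf9 membrane reagent. Cells were enriched on streptavidin microbeads and then FACS-sorted, with low and high (top ~1%) gates set on anti-HA fluorescence for expression and streptavidin fluorescence for reagent binding. Each polyreactivity label reflects the gate a clone came from. Genes were amplified by colony PCR, sequenced by MiSeq 2 × 250 and filtered by CDR length.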

Sequence	polyreactivity (PSR sort gate)
QFQLVESGGGLVQAGGTLRLSCAASGSTFYHYPLGWYRQAPGTVRQLVARITSSSGSTYYADSVKGRFTISRDNAKNTVYLQMYSLKPEDTAVYYCAASYYIVPYLTYGYWGQGTQVTVSS	low polyreactivity
QFQLVESGGGLVQAGGTLRLSCAASRRIFIHYAMGLSRQAPGKERELVSAISASGGTTNYADSVKGRFTISRDNAKNTVYLQLKSQKQEDTAVYYCAAEGYRSWRGLLSRYYYWGQGTQVTVSS	high polyreactivity
QFQLVESGGGLVQAGRSLRLSCAASGSIFWSNAMGWYRQAPGKERELVAAITTSDGSKYYADSVKGRFRISRDNANNTVYLQMNILKPEDTAVYYCAADTYFVCYGYYYWGQGTQVTVSS	low polyreactivity
QFQLVESGGGLVQAGVVSLKLCCLRKHFIYYAMAWSRQAPWKDTELVAGINSGGSTKYADSVKRRFTISRDNAKNSVYLQMNSLKPEDTAVYYCNADSYSPVIQEYDYWGQGTQVTVSS	low polyreactivity
QFQLVESGGGLVQSGGSLRLSCAASGFIFRSYAMGWYRQAPVKERELVAVISRRGVNTHYADSVKGRFTISRDNAKNTVYLQMNSLKPEDTAVYYCAKGLTAVGDYWGQGTQVTVSS	high polyreactivity
QFQLVESGGRLDQAGGSLRLSCAASSSIFDDYAMGWYRQAPGKERELVAAISWSGGSTYYADSVQGRFTISRDNPNHTVYLQMNSLKREDTAVYYCAAYAYDYLYGEYYWGQGTQVTVSS	low polyreactivity
QFQLVESGGRLVQPGGSLRLSCAASGGIFYGYAMGWYRKAPGKERELVAAISSTGGRTYYADSVKGRFTISRDNAKNTVYLQMNSLKPEDTAVSYCAAEDFTRQFEYWGQGTQVTVSS	low polyreactivity
QFQLVESGRGLVQAGGSLRLICAASGSIFIPYAMGWYRQAPGKERELVAAISSSGSTYYADSVKGRFTISRDNAKNTVYLQMNSLKPEDTAVYYCAAERHYSYSSYDYWGQGTQVTVSS	low polyreactivity
QFQLVESGRGLVQAGGSLRLSCAASGRIFSYNTLGWYRQAPGKERELVAAITNNGGSTYYADSVKGRFTISRDNAKNTVYLQMNSLKPEDTAVYYCNRDRYPFYYAYNYWGQGTQVTVSS	low polyreactivity
QFQLVESGRGLVQAGGSLRLSCAASGRTFTYYAMGWYRQAPGNERELVAAIRYTGGSTHYADSVKGRFTISRENAKNTVYFQMNSLKPEDTAVYYCADRRAYTRGGTVYFGYYYWGQGTQVTVSS	high polyreactivity
QFQLVESGRGLVQAGGSLRLSCAASVRIFRGYAKGWYRQAPGKEREFVAANTKNGGSTYYADSVKGRFTISRDYAKNTVYLQMNSLKPEDTAVYYCAVRAWEPYTGKSDYWGQGTQVTVSS	low polyreactivity
QFQLVESGVGLVQAGGSLRLSCAASVRINYAYAMGWYRQTPGKERELVAAISTRGGNTYYADSVKGRFTISRDNAMNTVYLQINSLIPEETEVYYCNALSVSRRFGYDSWGQGTQVTVSS	high polyreactivity
QFQLVESVGGLFQAGGSLRLSCDASGIIFIGNAMGWYRQAPGKERELVAAISRRGGRTYYADSVKGRFTISRDNAKNTVYLQMNSLKPEDTAVYYCAKRYYSYGKSGYYYWGQGTQVTVSS	high polyreactivity
QFQLVESVGGLVQAGGSLRLSCAASGRTGVNAMGWYRQAPRKERELVAAINNGDSTYYADSVKGRFTISRDNAKNTVYLQMNSLKPEDTAVYYCAARSALYPKYESWGQGTQVTVSS	low polyreactivity
QFQLVESVGGLVQAGGSLRLSCAASGYIFRHYAMGWYRQAPGKERELVAAISGRGGSTYYADSVKGRFTISRDNAKNTVYLQMNSLKPEDTAVYYCAKDRKAVGDFYYWGQGTQVTVSS	high polyreactivity
QFQLVESVGGLVQAGGSLRLTCAASGRIFLNYDMGWYRQEPGKDRELVAAITTGGSTYADSVKGRFTISRDNAKNTVYLQMNSLKAEDTAVYYCANRDRNKRDNWGQGTQVTGSS	low polyreactivity
QFQLVESVRGLFQAGGSLRLSCAASGSIFHPYGMGWYREDPVKERELVAAISSSGGDTYYADSVKGRFTISRDNAKNTVYLQMNSLKPEDTAVYYCATDHLDSYSVPGIGKHDYWGQGTQVTVSS	low polyreactivity
QFQLVESWVGLVQAGGSLRLSCAASGSTFPYYAIGWYRQAPGKERELVASIRKRGGGTYYADSVKGRFTISRDNAKNTVYLQMNSLKPEDTAVYYCAVRVYQFRFTGYDYWGHGTQVTVSS	high polyreactivity
QGKRVESGRGLVQAGGILRLSCAASGRTFYYYAMGWYRQSPGKERELVASITWSGGSTYYADSVKGRFTISRDNAKNTVYLQMNSLKPEDTAVYYCAARFVYYGVDYWGQGTQVTGSS	high polyreactivity
QGLLVQSGGGLVQAGGSLRLSCAASGFTFRFYAMLWYRQAPGNERELVAAISSTGSTNYADSVKARCTISRDNAKNTVYLQKNSLKPEDTAVYYCNTDYYNRYYDWLIWYYYWGQGTQVTVSS	high polyreactivity
QGQHVESGGGLVQAGGSLRLSCAASGLTFWVYAMGWYRQPRGKERELVAVITNGGRTNYADSVKGRFTISRDNAKNTVYLLMNSLKPEDSAVYYCARPNLLSGDYWGQGTQVTVSS	high polyreactivity
QGQHVETGGGLVQAGCTLRLSCAASGFTCGNYAMGWYRQAPGKGRELVAAIDSDGSTDYADAVKGRFTISRDNAKNTVYLQMNSLKPEDTAVYYCAARFDYGPRGCDYWGPGTQVTVSS	low polyreactivity
QGQIVESWGGLVQAGGSLRLSCAASGTFFTYMGWYRQAPGKERELVAAIRNGGSTNYADSVKGRCTISGDNAKNTVYLQMHSLKPEDTAVYYCAARVTYSRGYRGGSRTKYDSWGQGTQVTVSS	low polyreactivity
QGQLVESAGGLVQAGGSLRLSCAAYGRIFGINAMGWYRQAPGKERELVAASTGGGSTYADSVKGRVTISRDNAKNTVYLHMNSLKPEATAVYYCAARKIWSSIAYYYWGQGTQVTVSS	low polyreactivity
QGQLVESGGALVQAGGSLRLSCAASGFILPIYAMAWYRQAPGKEREIVAAITWTGGSTYYADSVKGRFTISRDNAKNTVYLQMISLKPEDTAVYYCNVVSDIRLYYRYAYDYWGQGTQVTVSS	high polyreactivity
QGQLVESGGALVQAGGSLRLSCAASGGTFFYYVMGWYRQAPGQERELVAAITGAGGSTYYADSVKGRFTSSRDNAKNTVYLQMNSLKPEDTAVYYCAADVSFTQSDGRLAEYGYWGQGTQVTVSS	low polyreactivity
QGQLVESGGGEVQAGGSLRLSCAASGFTFGSNAMGWYRPAPGKERELVAAISSTGSTYYADSVKGRFTLSRDNAKNTVYVQMNSLKPEDPAVYYCNADSDTPRYDYWGQGTQVTVSS	low polyreactivity
QGQLVESGGGLGQAGGSLRLSCAASGSIFQPNDMGWYRQAPGKERELVATISTGGTTNYADSVKGRFTISRDNAKNTVYLQMNSLKPDDTAVYYCATDRTFTISNYDYWGQGTQVTVSS	low polyreactivity
QGQLVESGGGLVHAGVSLRLSCAASGSTFQPYAMGWNRQAPGKERELVAAINWSGGGTYYADSVKGRFTISRDNAKNTVYLQMNSLKPVDTAVYYCAAEVYTYWALNTWRYDYWGQGTQVTVSS	high polyreactivity
QGQLVESGGGLVQAGASLRLSCAASGFIFAHYTMGWYRQAPGKARELVAAITRAGGSTFYADSVKGRFTISRDNAKNTVYLQRNSLKPEDTAVYYCNRGNRWNFDSWGQGTQVTVSS	high polyreactivity
